# Source: paper PMC11816700, “Multiple Chaperone DnaK–FliC Flagellin Interactions are Required for Pseudomonas aeruginosa Flagellum Assembly and Indicate a New Function for DnaK” (Microbial Biotechnology, 2025)
# T1: DnaK peptide H14 (P. aeruginosa)
# T1 construct: 15-residue stretch of P. aeruginosa DnaK, spot H14 of the DnaK SPOT membrane, domain SBD; source: synthetic peptide, SPOT membrane (cellulose)
# T1 peptide: QGDALVHATRKMITE
# T2: DnaK peptide E18 (P. aeruginosa)
# T2 construct: 15-residue stretch of P. aeruginosa DnaK, spot E18 of the DnaK SPOT membrane, domain NBD (ATPase); source: synthetic peptide, SPOT membrane (cellulose)
# T2 peptide: IHEVILVGGQTRMPL
# T3: DnaK peptide H13 (P. aeruginosa)
# T3 construct: 15-residue stretch of P. aeruginosa DnaK, spot H13 of the DnaK SPOT membrane, domain SBD; source: synthetic peptide, SPOT membrane (cellulose)
# T3 peptide: ARNQGDALVHATRKM
# T4: DnaK peptide E20 (P. aeruginosa)
# T4 construct: 15-residue stretch of P. aeruginosa DnaK, spot E20 of the DnaK SPOT membrane, domain NBD (ATPase); also called E20 (DnaK membrane); source: synthetic peptide, SPOT membrane (cellulose)
# T4 peptide: VGGQTRMPLVQKTVA
# T5: FliC peptide B18 (P. aeruginosa)
# T5 construct: 15-residue stretch of P. aeruginosa FliC, spot B18 of the FliC SPOT membrane, domain D1; source: synthetic peptide, SPOT membrane (cellulose)
# T5 peptide: TRISDTTTFGGRKLL
# T6: FliC peptide A16 (P. aeruginosa)
# T6 construct: 15-residue stretch of P. aeruginosa FliC, spot A16 of the FliC SPOT membrane, domain D1; source: synthetic peptide, SPOT membrane (cellulose)
# T6 peptide: AGLQISNRLSNQISG
# T7: FliC peptide E22 (P. aeruginosa)
# T7 construct: 15-residue stretch of P. aeruginosa FliC, spot E22 of the FliC SPOT membrane, domain D2; source: synthetic peptide, SPOT membrane (cellulose)
# T7 peptide: TGYVQLNSPTAYSVS
# T8: FliC peptide C20 (P. aeruginosa)
# T8 construct: 15-residue stretch of P. aeruginosa FliC, spot C20 of the FliC SPOT membrane, domain D3; source: synthetic peptide, SPOT membrane (cellulose)
# T8 peptide: VGGGQVKNIAIAAGD
# T9: FliC peptide E21 (P. aeruginosa)
# T9 construct: 15-residue stretch of P. aeruginosa FliC, spot E21 of the FliC SPOT membrane, domain D2; source: synthetic peptide, SPOT membrane (cellulose)
# T9 peptide: TVVTGYVQLNSPTAY
# T10: FliC peptide D20 (P. aeruginosa)
# T10 construct: 15-residue stretch of P. aeruginosa FliC, spot D20 of the FliC SPOT membrane, domain D2; source: synthetic peptide, SPOT membrane (cellulose)
# T10 peptide: LADQLNSNSSKLGIT
# T11: FliC peptide A9 (P. aeruginosa)
# T11 construct: 15-residue stretch of P. aeruginosa FliC, spot A9 of the FliC SPOT membrane, domain D0; source: synthetic peptide, SPOT membrane (cellulose)
# T11 peptide: LNTSLQRLTTGYRIN
# T12: FliC peptide A10 (P. aeruginosa)
# T12 construct: 15-residue stretch of P. aeruginosa FliC, spot A10 of the FliC SPOT membrane, domain D0; source: synthetic peptide, SPOT membrane (cellulose)
# T12 peptide: SLQRLTTGYRINSAK
# T13: FliC peptide E20 (P. aeruginosa)
# T13 construct: 15-residue stretch of P. aeruginosa FliC, spot E20 of the FliC SPOT membrane, domain D2; also called E20 (FliC membrane); source: synthetic peptide, SPOT membrane (cellulose)
# T13 peptide: ATTTVVTGYVQLNSP
# T14: FliC peptide F19 (P. aeruginosa)
# T14 construct: 15-residue stretch of P. aeruginosa FliC, spot F19 of the FliC SPOT membrane, domain D1; source: synthetic peptide, SPOT membrane (cellulose)
# T14 peptide: QRADLGAVQNRFKNT
# T15: FliC peptide F22 (P. aeruginosa)
# T15 construct: 15-residue stretch of P. aeruginosa FliC, spot F22 of the FliC SPOT membrane, domain D1; source: synthetic peptide, SPOT membrane (cellulose)
# T15 peptide: NRFKNTIDNLTNISE
# T16: FliC peptide D5 (P. aeruginosa)
# T16 construct: 15-residue stretch of P. aeruginosa FliC, spot D5 of the FliC SPOT membrane, domain D3; source: synthetic peptide, SPOT membrane (cellulose)
# T16 peptide: IPNLSARARTVFTAD
# B1: purified recombinant P. aeruginosa FliC (natural protein, UniProt A0A0H2Z7X1 1-488, looked up)
# chain: MALTVNTNIASLNTQRNLNASSNDLNTSLQRLTTGYRINSAKDDAAGLQISNRLSNQISGLNVATRNANDGISLAQTAEGALQQSTNILQRIRDLALQSANGSNSDADRAALQKEVAAQQAELTRISDTTTFGGRKLLDGSFGTTSFQVGSNAYETIDISLQNASASAIGSYQVGSNGAGTVASVAGTATASGIASGTVNLVGGGQVKNIAIAAGDSAKAIAEKMDGAIPNLSARARTVFTADVSGVTGGSLNFDVTVGSNTVSLAGVTSTQDLADQLNSNSSKLGITASINDKGVLTITSATGENVKFGAQTGTATAGQVAVKVQGSDGKFEAAAKNVVAAGTAATTTVVTGYVQLNSPTAYSVSGTGTQASQVFGNASAAQKSSVASVDISTADGAQNAIAVVDNALAAIDAQRADLGAVQNRFKNTIDNLTNISENATNARSRIKDTDFAAETAALSKNQVLQQAGTAILAQANQLPQAVLSLLR
# notes: FliC (flagellin type B) of P. aeruginosa UCBPP-PA14, gene amplified with primers fliCFw/Rv and cloned BamHI/XhoI into pGEX-6P-1; also called FliC-GST (before cleavage); source: E. coli BL21(λDE3), pGEX-6P-1-fliC, purified (Glutathione Sepharose 4B, eluted by prescission protease)
# B2: purified recombinant P. aeruginosa DnaK (natural protein)
# chain: not shown
# notes: DnaK of P. aeruginosa UCBPP-PA14, gene amplified with primers dnaKFw/Rv and cloned BamHI/XhoI into pGEX-6P-1; also called DnaK-GST (before cleavage); source: E. coli BL21(λDE3), pGEX-6P-1-dnaK, purified (Glutathione Sepharose 4B, eluted by prescission protease)
# How the values were obtained:
# [1] = biological target: T1, DnaK peptide H14; assay: peptide or protein array; SPOT membrane of 209 synthetic 15-mer peptides (shift of 3) spanning DnaK on cellulose; probed with purified recombinant FliC (GST cleaved); bound FliC detected with anti-FliC antibody and alkaline phosphatase secondary antibody; intensity by ImageJ, background subtracted; details: both partners purified
# [2] = biological target: T2, DnaK peptide E18; assay: as above; details: both partners purified
# [3] = biological target: T3, DnaK peptide H13; assay: as above; details: both partners purified
# [4] = biological target: T4, DnaK peptide E20; assay: as above; details: both partners purified
# [5] = biological target: SOD1bar mutant G41D (SOD1bar-G41D), FRET folding sensor; assay: cell-based or functional assay
# [6] = biological target: T5, FliC peptide B18; assay: peptide or protein array; SPOT membrane of 159 synthetic 15-mer peptides (shift of 3) spanning FliC on cellulose; probed with purified recombinant DnaK (GST cleaved); bound DnaK detected with anti-DnaK antibody and alkaline phosphatase secondary antibody; intensity by ImageJ, background subtracted; details: both partners purified
# [7] = biological target: T6, FliC peptide A16; assay: as above; details: both partners purified
# [8] = biological target: T7, FliC peptide E22; assay: as above; details: both partners purified
# [9] = biological target: T8, FliC peptide C20; assay: as above; details: both partners purified
# [10] = biological target: T9, FliC peptide E21; assay: as above; details: both partners purified
# [11] = biological target: T10, FliC peptide D20; assay: as above; details: both partners purified
# [12] = biological target: T11, FliC peptide A9; assay: as above; details: both partners purified
# [13] = biological target: T12, FliC peptide A10; assay: as above; details: both partners purified
# [14] = biological target: T13, FliC peptide E20; assay: as above; details: both partners purified
# [15] = biological target: T14, FliC peptide F19; assay: as above; details: both partners purified
# [16] = biological target: T15, FliC peptide F22; assay: as above; details: both partners purified
# [17] = biological target: T16, FliC peptide D5; assay: as above; details: both partners purified
binder,measurement,setting,value
B1,Intensity,[1],3.34 relative intensity
same,Intensity,[2],2.23 relative intensity
same,Intensity,[3],2.23 relative intensity
same,Intensity,[4],2.22 relative intensity
B2,"decrease of the melting temperature (Tm) of SOD1bar-G41D with DnaK (20 μM), pH 7, fast relaxation imaging (FReI); not affected by ATP or AMP-PNP",[5],~10 K
same,fold decrease of the maximal ΔD/A Initial of DnaK+SOD1bar-G41D at pH 6 when 2 mM ATP or AMP-PNP was added,[5],~1.7 fold
same,fold increase of kobs of the ΔD/A Initial curve of DnaK+SOD1bar-G41D at pH 6 when 2 mM AMP-PNP was added,[5],2 fold
same,fold increase of kobs of the ΔD/A Initial curve of DnaK+SOD1bar-G41D at pH 6 when 2 mM ATP was added,[5],4 fold
same,"melting temperature (Tm) of SOD1bar-G41D when supplemented with DnaK, FReI",[5],308 K
same,"reduction of the folding rate (kf) of SOD1bar-G41D at 310 K with DnaK (20 μM), pH 7, FReI",[5],~3 fold
same,Intensity,[6],5.07 relative intensity
same,Intensity,[7],4.17 relative intensity
same,Intensity,[8],3.55 relative intensity
same,Intensity,[9],3.05 relative intensity
same,Intensity,[10],2.87 relative intensity
same,Intensity,[11],2.85 relative intensity
same,Intensity,[12],2.51 relative intensity
same,Intensity,[13],2.4 relative intensity
same,Intensity,[14],2.36 relative intensity
same,Intensity,[15],2.34 relative intensity
same,Intensity,[16],2.3 relative intensity
same,Intensity,[17],2.22 relative intensity
